According to patent publication US20250361312A1 (INVOX PHARMA, published 2025):
Like-named read-outs stand apart in the source and are kept apart here.

Columns and labels:
[1] = target: T1, mouse OX40 receptor, cell-expressed (DO11.10-mOX40) (mouse, UniProt P47741 20-272); assay: cell-based or functional assay
T1 sequence: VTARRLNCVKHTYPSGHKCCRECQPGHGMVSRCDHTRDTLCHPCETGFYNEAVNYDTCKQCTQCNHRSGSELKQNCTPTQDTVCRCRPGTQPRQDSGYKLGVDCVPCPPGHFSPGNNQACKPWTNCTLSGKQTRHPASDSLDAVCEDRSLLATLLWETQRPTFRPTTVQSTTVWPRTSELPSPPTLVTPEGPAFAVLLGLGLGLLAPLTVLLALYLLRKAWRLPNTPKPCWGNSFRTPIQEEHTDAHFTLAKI

[2] = target: T1, mouse OX40 receptor, cell-expressed …; assay: cell-based or functional assay; remark: listed apart in the source
[3] = target: T1, mouse OX40 receptor, cell-expressed …; assay: flow cytometry on DO11.10-mOX40 cells
Experimental: Non-specific binding was also assessed by testing for binding to HEK cells not expressing OX40 by flow cytometry.
DO11.10 mOX40 or HEK cell suspensions were prepared in PBS+2% BSA (Sigma, A7906) and seeded at 4×10⁶ cell/ml with 50 μl/well in V-bottomed 96-well plates (Costar, 3897). […] The data was fit using log (agonist) vs response in GraphPad Prism Software.

[4] = target: T1, mouse OX40 receptor, cell-expressed …; assay: flow cytometry, labelled antibody on DO11.10-mOX40 cells
[5] = target: T1, mouse OX40 receptor, cell-expressed …; assay: cell-based or functional assay; remark: listed apart in the source
[6] = target: T1, mouse OX40 receptor, cell-expressed …; assay: cell-based or functional assay; remark: listed apart in the source
[7] = target: T2, mouse TNFRII (mouse, UniProt P25119 23-258, limits assumed); assay: SPR (Biacore T200), receptor on CM5 chip
T2 construct: Amine-coupled to a CM5 chip
T2 sequence (looked up): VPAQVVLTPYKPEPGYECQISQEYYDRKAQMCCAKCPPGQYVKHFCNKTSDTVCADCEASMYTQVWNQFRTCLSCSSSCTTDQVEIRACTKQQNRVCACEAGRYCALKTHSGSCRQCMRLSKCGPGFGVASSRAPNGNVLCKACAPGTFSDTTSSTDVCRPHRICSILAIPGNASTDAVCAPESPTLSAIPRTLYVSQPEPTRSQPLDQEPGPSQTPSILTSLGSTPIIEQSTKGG

[8] = target: T3, mouse NGFR (mouse, UniProt Q9Z0W1 32-254, limits assumed); assay: SPR (Biacore T200), receptor on CM5 chip
T3 construct: Amine-coupled to a CM5 chip
T3 sequence (looked up): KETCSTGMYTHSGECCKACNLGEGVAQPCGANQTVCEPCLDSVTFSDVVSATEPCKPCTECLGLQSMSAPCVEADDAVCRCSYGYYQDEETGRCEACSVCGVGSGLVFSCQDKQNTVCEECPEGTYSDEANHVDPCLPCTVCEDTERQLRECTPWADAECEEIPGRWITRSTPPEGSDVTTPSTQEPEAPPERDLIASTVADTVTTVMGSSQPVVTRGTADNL

[9] = target: T4, mouse CD40 (mouse, UniProt P27512 24-193, limits assumed); assay: SPR (Biacore T200), receptor on CM5 chip
T4 construct: Amine-coupled to a CM5 chip
T4 sequence (looked up): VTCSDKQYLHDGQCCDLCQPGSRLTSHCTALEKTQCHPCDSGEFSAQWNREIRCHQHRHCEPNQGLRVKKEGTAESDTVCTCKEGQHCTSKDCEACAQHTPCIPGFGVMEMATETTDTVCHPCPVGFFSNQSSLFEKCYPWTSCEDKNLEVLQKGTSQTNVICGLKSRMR

[10] = target: T5, mouse CD137 (mouse, UniProt P20334 24-187, limits assumed); assay: SPR (Biacore T200), receptor on CM5 chip
T5 construct: Amine-coupled to a CM5 chip; also called 4-1BB
T5 sequence (looked up): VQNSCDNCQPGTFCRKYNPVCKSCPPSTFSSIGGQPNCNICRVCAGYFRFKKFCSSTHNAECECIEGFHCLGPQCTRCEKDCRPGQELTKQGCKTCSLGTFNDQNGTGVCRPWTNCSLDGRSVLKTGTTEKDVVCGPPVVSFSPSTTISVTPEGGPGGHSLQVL

[11] = target: T6, mouse TNFRI (mouse, UniProt P25118 22-212, limits assumed); assay: SPR (Biacore T200), receptor on CM5 chip
T6 construct: Amine-coupled to a CM5 chip
T6 sequence (looked up): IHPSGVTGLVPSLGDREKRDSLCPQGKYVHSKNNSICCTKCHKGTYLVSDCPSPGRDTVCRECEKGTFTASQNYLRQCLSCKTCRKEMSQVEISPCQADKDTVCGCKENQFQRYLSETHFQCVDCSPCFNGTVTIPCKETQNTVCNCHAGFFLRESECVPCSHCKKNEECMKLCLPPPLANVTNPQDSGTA

B1: G1AA/OX86 (antibody, human IgG1, kappa, L234A L235A, V domains shown)
VH: QVQLKESGPGLVQPSQTLSLTCTVSGFSLTGYNLHWVRQPPGKGLEWMGRMRYDGDTYYNSVLKSRLSISRDTSKNQVFLKMNSLQTDDTAIYYCTRDGRGDSFDYWGQGVMVTVSS
VL: DIVMTQGALPNPVPSGESASITCRSSQSLVYKDGQTYLNWFLQRPGQSPQLLTYWMSTRASGVSDRFSGSGSGTYFTLKISRVRAEDAGVYYCQQVREYPFTFGSGTKLEIKR
notes: also called anti-mouse OX40 mAb OX86 in a human IgG1 backbone with the LALA mutation
EC50 of IL-2 release, Xlink (anti-hCH2) [1]: 0.463 nM
EC50 of IL-2 release, crosslinked (anti-human CH2 mAb) [2]: 1.75 nM
EC50 [3]: 3.1 nM

B2: antibody OX86 (Biolegend cat no 119408) (antibody, V domains shown)
VH: QVQLKESGPGLVQPSQTLSLTCTVSGFSLTGYNLHWVRQPPGKGLEWMGRMRYDGDTYYNSVLKSRLSISRDTSKNQVFLKMNSLQTDDTAIYYCTRDGRGDSFDYWGQGVMVTVSS
VL: DIVMTQGALPNPVPSGESASITCRSSQSLVYKDGQTYLNWFLQRPGQSPQLLTYWMSTRASGVSDRFSGSGSGTYFTLKISRVRAEDAGVYYCQQVREYPFTFGSGTKLEIK
fluorescence over non-transduced cells [4]: ≥ 10 fold

B3: FS20m-232-91AA/4420 (bispecific antibody, human IgG1, kappa, L234A L235A)
heavy: EVKLDETGGGLVQPGRPMKLSCVASGFTFSDYWMNWVRQSPEKGLEWVAQIRNKPYNYETYYSDSVKGRFTISRDDSKSSVYLQMNNLRVEDMGIYYCTGSYYGMDYWGQGTSVTVSSASTKGPSVFPLAPSSKSTSGGTAALGCLVKDYFPEPVTVSWNSGALTSGVHTFPAVLQSSGLYSLSSVVTVPSSSLGTQTYICNVNHKPSNTKVDKKVEPKSCDKTHTCPPCPAPEAAGGPSVFLFPPKPKDTLMISRTPEVTCVVVDVSHEDPEVKFNWYVDGVEVHNAKTKPREEQYNSTYRVVSVLTVLHQDWLNGKEYKCKVSNKALPAPIEKTISKAKGQPREPQVYTLPPSRDELFDPMYYYNQVSLTCLVKGFYPSDIAVEWESNGEPLWDYKTTPPVLDSDGSFFLYSKLTVWRDRWEDGNVFSCSVMHEALHNHYTQKSLSLSPG
light: DVVMTQTPLSLPVSLGDQASISCRSSQSLVHSNGNTYLRWYLQKPGQSPKVLIYKVSNRFSGVPDRFSGSGSGTDFTLKISRVEAEDLGVYFCSQSTHVPWTFGGGTKLEIKRTVAAPSVFIFPPSDEQLKSGTASVVCLLNNFYPREAKVQWKVDNALQSGNSQESVTEQDSKDSTYSLSSTLTLSKADYEKHKVYACEVTHQGLSSPVTKSFNRGEC
notes: Human IgG1 with anti-FITC 4420 Fab and LALA; The mouse OX40 site is in the CH3 domain; also called mFS20-232-91AA/4420; anti-mouse OX40 Fcab FS20m-232-91 in mock (4420 LALA) mAb^2 format
EC50 of IL-2 release, HPAC cells present, + FITCdex [5]: 0.548 nM
EC50 of IL-2 release, HPAC cells present, + G1/E2A + a-hFc + FITCdex [5]: 2.09 nM
EC50 of IL-2 release, Xlink (FITC-dextran) [1]: 0.158 nM
EC50 of IL-2 release, no crosslinker [1]: 76.4 nM
EC50 of IL-2 release, crosslinked (FITC-dextran) [2]: 0.67 nM
EC50 of IL-2 release, Xlink (FITC-dextran) [6]: 0.629 nM
EC50 [3]: 1.01 nM

B4: FS20m-232-91AA/HEL D1.3 (bispecific antibody, human IgG1, kappa, L234A L235A, V domains shown)
VH: QVQLQESGPGLVRPSQTLSLTCTVSGSTFSGYGVNWVRQPPGRGLEWIGMIWGDGNTDYNSALKSRVTMLVDTSKNQFSLRLSSVTAADTAVYYCARERDYRLDYWGQGSLVTVSS
VL: DIQMTQSPASLSASVGETVTITCRASGNIHNYLAWYQQKQGKSPQLLVYNAKTLADGVPSRFSGSGSGTQYSLKINSLQPEDFGSYYCQHFWSTPRTFGGGTKLEIKR
notes: Human IgG1 with anti-HEL D1.3 Fab and LALA; also called FS20m-232-91 in mock (HEL D1.3 LALA) mAb^2 format; FS20m-232-91/HelD1.3 mock mAb^2 with LALA mutation
binding result [7]: no binding (tested: 1 µM)
binding result [8]: no binding (tested: 1 µM)
binding result [9]: no binding (tested: 1 µM)
binding result [10]: no binding (tested: 1 µM)
binding result [11]: no binding (tested: 1 µM)
